Patent US20030044400A1, “Composition and method for treating cells” (priority 2001, published 2003)
“And” between values parts separate entries of the source, which are not always exact repeats. Identical values can stand only once.

Legend:
PC-12 cells = assay: Apoptosis of PC-12 cells in the presence of serum; assay type: cell-based; details: PC-12 cells in 10% horse serum+5% FBS; 5 uM Fetuin
Experimental: PC-12 cells were seeded in 10% heat-inactivated horse serum+5% FBS+RPMI 1640 media for 1-2 days and treated with 5 uM Fetuin. […] The apoptosis-inducing activity of Fetuin at high concentration can be applied in therapy of neuroblastoma.

[1] = Rabbit Study to Determine the Safety of Fetuin by Intravenous Administration; assay type: in vivo; design: Temp Increase / Wt. Gain Mar. 6, 2000 / Wt. Gain April 6, 2000 / Wt. Gain April 19, 2000 / Mean of Wt.Gain / Globulin / Alanine Transferase / Aspartate Transferase / Mean of ALT / Mean of AST: unit not given here; details: rabbits; for Temp Increase: monitored 3 hours post injection; for Blood Glucose Level / Mean of blood Glucose level: non-fasting; for Wt. Gain: over 7 week period; for Albumin / Globulin: serum
Experimental: Rabbits weighing 1.75 to 2.5 kg are used in the study, 2 rabbits/group. The control group receives 1 ml of saline. […] All dilutions are made with sterile pyrogen free saline (0.9%). The study is designed to limit to an acceptable level the risk of a febrile reaction in patients. The animals are given their respective doses of Fetuin at two-day interval for a total of three doses if no reaction occurs. Blood samples are collected for a baseline prior to treatment and then 24-36 hours after the third treatment. At the end of the treatment period, blood is drawn to perform hematology to compare with the baseline levels. The body temperature is recorded for three hours post injection to determine if a febrile reaction is produced. The body temperature is monitored prior to injection (30 min) and then at 30 min interval for three hours. Prior to sacrifice, blood is drawn from each animal to determine the serum level of Fetuin. Organs are examined in all animals. The target organs: spleen, lymph nodes, thymus are examined for evidence of increased size. All tissues excised are preserved in 10% formalin for subsequent histopathology if necessary. Observations made at each dose level are tabulated to see if there is any correlation of symptoms and/or mortality and dose level of the test material. Body weights and necropsy results are recorded. Rabbit body temperature increases for each dose level is reported and conclusions made from the study.

[2] = Antigenic response after Fetuin injection; assay type: in vivo; details: mice, rat and rabbits to bovine
Excerpt: However, the species are mice, rat and rabbits to bovine, not human to bovine. The amino acid sequence of Fetuin homologue between species is about 65%. Because the mechanism of Fetuin exerting the drug effect is by binding to the growth factors, this is expected to have less immune response than other protein nature drugs.

Fetuin: Fetal bovine fetuin purified from fetal bovine serum by modified Spiro method; 60 Kd glycoprotein, homologue of alpha 2-HS glycoprotein
apoptosis-inducing activity (PC-12 cells): apoptosis-inducing activity was observed
signs of distress during the test [1]: None of the animals displayed any signs of distress
toxicity, conclusion of rabbit study ([1]; iv): no toxicity
Alanine Transferase ([1]; iv, 65.7 mg/kg): 54 and 29
Albumin/Globulin Ratio ([1]; iv, 65.7 mg/kg): 13.8 and 11.2
Aspartate Transferase ([1]; iv, 65.7 mg/kg): 28 and 32
Blood Urea Nitrogen ([1]; iv, 65.7 mg/kg): 21 mg/dL and 24 mg/dL
Cholesterol ([1]; iv, 65.7 mg/kg): 69 mg/dL and 71 mg/dL
Cholesterol Mean ([1]; iv, 65.7 mg/kg): 70 mg/dL
Hematocrit ([1]; iv, 65.7 mg/kg): 37.0% and 40.2%
Hematocrit % Mean ([1]; iv, 65.7 mg/kg): 38.6%
Hemoglobin ([1]; iv, 65.7 mg/kg): 12.6 g/dL and 13.4 g/dL
Hemoglobin Mean ([1]; iv, 65.7 mg/kg): 13.0 g/dL
Mean of ALT ([1]; iv, 65.7 mg/kg): 41.5
Mean of AST ([1]; iv, 65.7 mg/kg): 30
Mean of BUN ([1]; iv, 65.7 mg/kg): 22.5 mg/dL
Mean of WBC ([1]; iv, 65.7 mg/kg): 8.5 K/ul
Mean of Wt.Gain ([1]; iv, 65.7 mg/kg): 1.14
Spleen Wt. ([1]; iv, 65.7 mg/kg): 1.72 g and 1.54 g
Spleen Wt. Mean ([1]; iv, 65.7 mg/kg): 1.63 g
Thymus Wt. ([1]; iv, 65.7 mg/kg): 5.21 g and 6.56 g
Thymus Wt. Mean ([1]; iv, 65.7 mg/kg): 5.85 g
Ttl Serum Protn ([1]; iv, 65.7 mg/kg): 5.9 g/dL and 6.1 g/dL
WBC, K/ul ([1]; iv, 65.7 mg/kg): 6.9 K/ul and 10.1 K/ul
Wt. Gain April 6, 2000 ([1]; iv, 65.7 mg/kg): 3.15 and 3.28
Wt. Gain April 19, 2000 ([1]; iv, 65.7 mg/kg): 3.65 and 3.72
Wt. Gain Mar. 6, 2000 ([1]; iv, 65.7 mg/kg): 2.48 and 2.61
Temp Increase ([1]; iv, 65.7 mg/kg, Apr. 6, 2000): 0
Temp Increase ([1]; iv, 65.7 mg/kg, Mar. 6, 2000): 0
Blood Glucose Level ([1]; iv, 65.7 mg/kg): 94 mg/dL and 88 mg/dL
Mean of blood Glucose level ([1]; iv, 65.7 mg/kg): 91 mg/dL
Wt. Gain ([1]; iv, 65.7 mg/kg): 1.17 kg and 1.11 kg
Albumin ([1]; iv, 65.7 mg/kg): 5.5 and 5.6
Globulin ([1]; iv, 65.7 mg/kg): 0.4 and 0.5
Alanine Transferase ([1]; iv, 126 mg/kg): 42 and 32
Albumin/Globulin Ratio ([1]; iv, 126 mg/kg): 8.8
Aspartate Transferase ([1]; iv, 126 mg/kg): 37 and 66
Blood Urea Nitrogen ([1]; iv, 126 mg/kg): 20 mg/dL and 17 mg/dL
Cholesterol ([1]; iv, 126 mg/kg): 66 mg/dL and 49 mg/dL
Cholesterol Mean ([1]; iv, 126 mg/kg): 57.5 mg/dL
Hematocrit ([1]; iv, 126 mg/kg): 38.2% and 38.6%
Hematocrit % Mean ([1]; iv, 126 mg/kg): 38.4%
Hemoglobin ([1]; iv, 126 mg/kg): 12.4 g/dL and 12.9 g/dL
Hemoglobin Mean ([1]; iv, 126 mg/kg): 12.6 g/dL
Mean of ALT ([1]; iv, 126 mg/kg): 37
Mean of AST ([1]; iv, 126 mg/kg): 51.5
Mean of BUN ([1]; iv, 126 mg/kg): 18.5 mg/dL
Mean of WBC ([1]; iv, 126 mg/kg): 8.1 K/ul
Mean of Wt.Gain ([1]; iv, 126 mg/kg): 0.76
Spleen Wt. ([1]; iv, 126 mg/kg): 1.37 g and 1.9 g
Spleen Wt. Mean ([1]; iv, 126 mg/kg): 1.43 g
Thymus Wt. ([1]; iv, 126 mg/kg): 4.90 g and 5.21 g
Thymus Wt. Mean ([1]; iv, 126 mg/kg): 5.05 g
Ttl Serum Protn ([1]; iv, 126 mg/kg): 5.9 g/dL
WBC, K/ul ([1]; iv, 126 mg/kg): 6.7 K/ul and 9.5 K/ul
Wt. Gain April 6, 2000 ([1]; iv, 126 mg/kg): 3.31 and 3.10
Wt. Gain April 19, 2000 ([1]; iv, 126 mg/kg): 3.56 and 3.26
Wt. Gain Mar. 6, 2000 ([1]; iv, 126 mg/kg): 2.60 and 2.70
Temp Increase ([1]; iv, 126 mg/kg, Apr. 6, 2000): 0
Temp Increase ([1]; iv, 126 mg/kg, Mar. 6, 2000): 0
Blood Glucose Level ([1]; iv, 126 mg/kg): 221 mg/dL and 123 mg/dL
Mean of blood Glucose level ([1]; iv, 126 mg/kg): 172 mg/dL
Wt. Gain ([1]; iv, 126 mg/kg): 0.96 kg and 0.56 kg
Albumin ([1]; iv, 126 mg/kg): 5.3
Globulin ([1]; iv, 126 mg/kg): 0.6
Alanine Transferase ([1]; iv, 185 mg/kg): 49 and 36
Albumin/Globulin Ratio ([1]; iv, 185 mg/kg): 5.8 and 10.2
Aspartate Transferase ([1]; iv, 185 mg/kg): 26 and 23
Blood Urea Nitrogen ([1]; iv, 185 mg/kg): 19 mg/dL and 22 mg/dL
Cholesterol ([1]; iv, 185 mg/kg): 35 mg/dL and 56 mg/dL
Cholesterol Mean ([1]; iv, 185 mg/kg): 45.5 mg/dL
Hematocrit ([1]; iv, 185 mg/kg): 35.2% and 37.3%
Hematocrit % Mean ([1]; iv, 185 mg/kg): 36.3%
Hemoglobin ([1]; iv, 185 mg/kg): 11.4 g/dL and 12.3 g/dL
Hemoglobin Mean ([1]; iv, 185 mg/kg): 11.8 g/dL
Mean of ALT ([1]; iv, 185 mg/kg): 42.5
Mean of AST ([1]; iv, 185 mg/kg): 24.5
Mean of BUN ([1]; iv, 185 mg/kg): 20.5 mg/dL
Mean of WBC ([1]; iv, 185 mg/kg): 8.75 K/ul
Mean of Wt.Gain ([1]; iv, 185 mg/kg): 1.02
Spleen Wt. ([1]; iv, 185 mg/kg): 1.71 g and 1.64 g
Spleen Wt. Mean ([1]; iv, 185 mg/kg): 1.67 g
Thymus Wt. ([1]; iv, 185 mg/kg): 5.26 g and 5.60 g
Thymus Wt. Mean ([1]; iv, 185 mg/kg): 5.43 g
Ttl Serum Protn ([1]; iv, 185 mg/kg): 6.1 g/dL and 5.6 g/dL
WBC, K/ul ([1]; iv, 185 mg/kg): 10.7 K/ul and 6.8 K/ul
Wt. Gain April 6, 2000 ([1]; iv, 185 mg/kg): 3.19 and 3.26
Wt. Gain April 19, 2000 ([1]; iv, 185 mg/kg): 3.69 and 3.77
Wt. Gain Mar. 6, 2000 ([1]; iv, 185 mg/kg): 2.80 and 2.61
Temp Increase ([1]; iv, 185 mg/kg, Apr. 6, 2000): 0
Temp Increase ([1]; iv, 185 mg/kg, Mar. 6, 2000): 0
Blood Glucose Level ([1]; iv, 185 mg/kg): 117 mg/dL and 89 mg/dL
Mean of blood Glucose level ([1]; iv, 185 mg/kg): 103 mg/dL
Wt. Gain ([1]; iv, 185 mg/kg): 0.89 kg and 1.16 kg
Albumin ([1]; iv, 185 mg/kg): 5.2 and 5.1
Globulin ([1]; iv, 185 mg/kg): 0.9 and 0.5
rectal temperature change over 3 hr post injection ([1]; any dosages of Fetuin): did not cause body temperature increase
hypersensitivity reaction after Fetuin injection [2]: no hypersensitivity reaction was shown
